{"source": "patent US20250051463A1", "about": "(AstraZeneca / MedImmune, published 2025)", "key": {"[1]": {"target": "T1, human CD123 (IL3Rα) on cells (human, UniProt P26951 19-378)", "T1 construct": "whole, on cells; also called human IL3Rα expressed on 293 cells; AD293hIL3Rα", "assay": "flow cytometry on THP-1 CD123(+dox) cells, Geo MFI", "method": "(§1) THP-1 cells were transfected with an IL3Rα expression construct under the control of a doxycycline inducible promoter. THP-1 cells were maintained in DMEM containing 10% heat-inactivated fetal bovine serum (FBS) and were cultured in a humidified atmosphere of 5% CO₂ and at a temperature of 37° C. […] (Dox) inducible cells were stimulated with 1 μg/ml dox overnight before use. […] On the day of plating, cells were spun down at 1500 rpm for 3 minutes, counted, and resuspended to a final concentration of 1×10⁶ cells/ml. Two hundred μl of cells were plated in wells of 96 well microtiter plates. The plates were spun down at 1500 rpm for 3 minutes and flicked to remove media. One hundred μl of FACS buffer (PBS+2% FBS) was added to each well. […] The antibody concentration started at 12 μg/ml followed by six 1:3 dilutions (no antibody control was also run). The plates were incubated at 4° C. for 30 minutes. Following incubation, the plates were washed 3 times by spinning down at 1500 rpm for 3 minutes, flicked and 100 μl of FACs buffer was added. Alexa 647 secondary antibody (goat anti-human IgG (H+L)) was added at 1:1000 dilution in 100 μl followed by 30 minute 4° C. incubation. The plates were washed as above. […] Cells were analyzed on a BD Bioscience LSRII by collecting 10,000 cells. Flow data was analyzed in FlowJo software."}, "[2]": {"target": "T1, human CD123 (IL3Rα) on cells", "assay": "flow cytometry on EOL-1 cells, geometric mean", "method": "On the day of plating, cells were spun down at 1500 rpm for 3 minutes, counted, and resuspended to a final concentration of 1×10⁶ cells/ml. […] Plates were incubated at 4° C. for 30 minutes. Following incubation plates were washed 3 times by spinning down at 1500 rpm for 3 minutes, flicked and 100 μl of FACS buffer were added. […] Flow data was analyzed in FlowJo software."}, "[3]": {"target": "T2, cynomolgus IL3Rα (CD123), sample in solution for biolayer interferometry (cynomolgus)", "T2 construct": "Soluble analyte in the Octet assay; construct not described; also called cynomolgus CD123 sample", "assay": "kinetic binding curves, antibody on the sensor, cyIL3Ra in solution; the sheet prints Temperature: 25 C"}, "[4]": {"target": "T1, human CD123 (IL3Rα) on cells", "assay": "flow cytometry with Alexa 647 labelled antibody on Ad293 cells expressing human IL3Ra, geometric mean", "method": "AD293 cells were maintained in DMEM (Dulbecco's Modified Eagle Medium) containing 10% heat-inactivated fetal bovine serum (FBS) and were cultured in a humidified atmosphere of 5% CO2 and at a temperature of 37° C. On the day of plating, cells were spun down at 1500 rpm for 3 minutes, counted, and resuspended to a final concentration of 0.3×10⁶ cells/ml. Two hundred μl of cells were plated to wells of 96 well microtiter plate. Plates were spun down at 1500 rpm for 3 minutes and flicked to remove media. One hundred μl of FACs buffer (PBS [Phosphate Buffer Saline]+2% FBS) was added to the wells. Plates were then spun again as above followed by addition of primary antibody in 100 μl of FACS buffer. […] Antibody concentration started at 12 μg/ml followed by six 1:3 dilutions (no antibody control was also run). Plates were incubated at 4° C. for 30 minutes. Following incubation plates were washed 3 times by spinning down at 1500 rpm for 3 minutes, flicked and 100 μl of FACS buffer were added. Following a final wash, 100 μl of FACS buffer containing live/dead DAPI (diamidino-2-phenylindole) stain was added to the plates. […] Flow data was analyzed in FlowJo software."}, "[5]": {"target": "T1, human CD123 (IL3Rα) on cells", "assay": "flow cytometry on THP-1 CD123 (no dox) cells, Geo MFI", "method": "as §1"}, "[6]": {"target": "T3, human IL3Rα (CD123), sample in solution for biolayer interferometry (human, UniProt P26951 19-305, limits assumed)", "T3 construct": "Soluble analyte in the Octet assay; also called hIL3-Rα; hIL3Rα", "T3 sequence (looked up)": "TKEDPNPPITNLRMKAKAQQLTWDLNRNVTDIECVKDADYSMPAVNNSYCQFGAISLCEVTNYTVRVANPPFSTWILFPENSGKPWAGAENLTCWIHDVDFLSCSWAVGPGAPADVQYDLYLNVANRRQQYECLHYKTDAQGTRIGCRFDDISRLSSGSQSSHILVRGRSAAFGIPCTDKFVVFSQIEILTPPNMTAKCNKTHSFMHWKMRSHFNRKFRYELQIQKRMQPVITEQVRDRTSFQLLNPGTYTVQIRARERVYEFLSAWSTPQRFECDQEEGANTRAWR", "assay": "biolayer interferometry (Octet RED384), antibody on AHC sensor, hIL3-Rα 10-0.16 µg/mL in solution, 1:1 fit", "method": "Biolayer interferometry binding experiments were performed using an Octet RED384 instrument, with all measurements made at 30° C. AHC biosensor probes were soaked in kinetics buffer (PBS pH 7.2+0.02% Tween-20, 0.1% BSA, 0.05% sodium azide) for 10 minutes, followed by baseline signal measurement in kinetics buffer for 60 seconds. […] For binding to hIL3-Rα, the antibody-loaded biosensor tips were dipped in binding buffer for 60 sec (baseline), followed by immersion in a solution containing dilutions of hIL3-Rα (10-0.16 μg/mL) for 300 sec (association), and subsequent immersion in kinetics buffer for 400 sec (dissociation). For binding to hIL5-Rα and GM-CSFRa, all steps were the same except the concentration of antigen was increased (50-1.56 μg/mL) and the dissociation step was decreased to 300 sec. The signal from a buffer only reference sample was subtracted, and all curves were fit with a 1:1 binding model to determine KD values."}}, "data": [{"binder": "HT12-GL antibody (antibody, human IgG1, kappa, V domains shown, elsewhere unlabeled with a secondary antibody; also called HT12-GL mAb; CD123 mAb) VH: EVQLLESGGGLVQPGGSLRLSCAASGFTFNIYAMTWVRQAPGKGLEWVSGISAGGDSTYYADSVKGRFTISRDNSKNTLYLQMNSLRAEDTAVYYCAKDRGYYYGMDVWGQGTTVTVSS VL: not shown", "values": [{"measurement": "EC50 (read off the curve)", "setting": "[1]", "result": "~0.3", "unit": "µg/mL"}, {"measurement": "EC50 (read off the curve)", "setting": "[2]", "result": "~0.04", "unit": "µg/mL"}, {"measurement": "Kd", "setting": "[3]", "result": 0.656, "unit": "nM"}, {"measurement": "EC50 (read off the curve)", "setting": "[4]", "result": "~1", "unit": "µg/mL"}, {"measurement": "EC50 (read off the curve)", "setting": "[5]", "result": "~0.2", "unit": "µg/mL"}, {"measurement": "Kd", "setting": "[6]", "result": 0.31, "unit": "nM"}]}]}
